Test results from PMC10541312 (The Journal of Experimental Medicine, 2023).
Substitutions are numbered along the chain they refer to. In names and notes the source's numbering stands.

Tests used:
Experiment in all cases: BLI; biotinylated CD123 ECD wt and variants captured on streptavidin biosensors; IL-3 as analyte, 500 to 7.8 nM in PBS pH7.4; association 300 s; steady-state analysis
Conditions in all cases: both partners purified
[1] = biological target: T1, CD123 R84Q ECD (amino acids 19–305), soluble protein (human, UniProt P26951 19-305, R84Q, biotinylated (Biotinylation kit Type B) in the IL-3 BLI only)
T1 construct: human CD123 extracellular domain (ECD; amino acids 19–305); source: produced and purified by Icosagen
T1 sequence (looked up): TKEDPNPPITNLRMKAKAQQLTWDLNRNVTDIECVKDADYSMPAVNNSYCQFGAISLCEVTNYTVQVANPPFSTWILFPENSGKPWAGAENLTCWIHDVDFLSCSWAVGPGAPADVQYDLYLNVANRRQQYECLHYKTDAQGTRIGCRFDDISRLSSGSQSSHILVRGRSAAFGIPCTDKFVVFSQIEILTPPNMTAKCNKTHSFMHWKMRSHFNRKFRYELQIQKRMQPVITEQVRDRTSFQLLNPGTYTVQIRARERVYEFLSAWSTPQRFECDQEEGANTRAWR

[2] = biological target: T2, CD123 E51K ECD (amino acids 19–305), soluble protein (human, UniProt P26951 19-305, E51K, biotinylated (Biotinylation kit Type B) in the IL-3 BLI only)
T2 construct: human CD123 extracellular domain (ECD; amino acids 19–305); source: produced and purified by Icosagen
T2 sequence (looked up): T1 sequence (looked up) with E33K, Q66R

[3] = biological target: T3, CD123 E51T ECD (amino acids 19–305), soluble protein (human, UniProt P26951 19-305, E51T, biotinylated (Biotinylation kit Type B) in the IL-3 BLI only)
T3 construct: human CD123 extracellular domain (ECD; amino acids 19–305); source: produced and purified by Icosagen
T3 sequence (looked up): T1 sequence (looked up) with E33T, Q66R

[4] = biological target: T4, CD123 E51A ECD (amino acids 19–305), soluble protein (human, UniProt P26951 19-305, E51A, biotinylated (Biotinylation kit Type B) in the IL-3 BLI only)
T4 construct: human CD123 extracellular domain (ECD; amino acids 19–305); source: produced and purified by Icosagen
T4 sequence (looked up): T1 sequence (looked up) with E33A, Q66R

[5] = biological target: T5, CD123 wt ECD (amino acids 19–305), soluble protein (human, UniProt P26951 19-305, biotinylated (Biotinylation kit Type B) in the IL-3 BLI only)
T5 construct: human CD123 extracellular domain (ECD; amino acids 19–305); also called wt CD123; source: produced and purified by Icosagen
T5 sequence (looked up): T1 sequence (looked up) with Q66R

[6] = biological target: T6, CD123 S59F ECD (amino acids 19–305), soluble protein (human, UniProt P26951 19-305, S59F, biotinylated (Biotinylation kit Type B) in the IL-3 BLI only)
T6 construct: human CD123 extracellular domain (ECD; amino acids 19–305); source: produced and purified by Icosagen
T6 sequence (looked up): T1 sequence (looked up) with S41F, Q66R

Measured: binding result

B1: IL-3 (ligand, human, UniProt P08700 20-152, looked up)
chain: APMTQTTPLKTSWVNCSNMIDEIITHLKQPPLPLLDFNNLNGEDQDILMENNLRRPNLEAFNRAVKSLQNASAIESILKNLLPCLPLATAAPTRHPIHIKDGDWNEFRRKLTFYLKTLENAQAQQTTLSLAIF
notes: human interleukin-3, recombinant, Sino Biological PN 11858-H08H; also called interleukin-3; human IL-3; source: bought: Sino Biological (PN 11858-H08H)
binds: [1] | [2] | [3] | [4] | [5] | [6]
